Experimental findings from US20220332804A1 (CSL INNOVATION, published 2022) are described below.

What all share (assay): SPR, antibody captured, C2 as analyte;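 further: biacore at 37 °C, anti-C2 mAbs held by immobilised goat anti-human IgG, C2 alanine or serine mutants injected, double-referenced sensorgrams fitted to a 1:1 kinetic or steady-state model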
One test has as its target T1, human C2 K430A (human, UniProt P06681 21-752).
T1 sequence: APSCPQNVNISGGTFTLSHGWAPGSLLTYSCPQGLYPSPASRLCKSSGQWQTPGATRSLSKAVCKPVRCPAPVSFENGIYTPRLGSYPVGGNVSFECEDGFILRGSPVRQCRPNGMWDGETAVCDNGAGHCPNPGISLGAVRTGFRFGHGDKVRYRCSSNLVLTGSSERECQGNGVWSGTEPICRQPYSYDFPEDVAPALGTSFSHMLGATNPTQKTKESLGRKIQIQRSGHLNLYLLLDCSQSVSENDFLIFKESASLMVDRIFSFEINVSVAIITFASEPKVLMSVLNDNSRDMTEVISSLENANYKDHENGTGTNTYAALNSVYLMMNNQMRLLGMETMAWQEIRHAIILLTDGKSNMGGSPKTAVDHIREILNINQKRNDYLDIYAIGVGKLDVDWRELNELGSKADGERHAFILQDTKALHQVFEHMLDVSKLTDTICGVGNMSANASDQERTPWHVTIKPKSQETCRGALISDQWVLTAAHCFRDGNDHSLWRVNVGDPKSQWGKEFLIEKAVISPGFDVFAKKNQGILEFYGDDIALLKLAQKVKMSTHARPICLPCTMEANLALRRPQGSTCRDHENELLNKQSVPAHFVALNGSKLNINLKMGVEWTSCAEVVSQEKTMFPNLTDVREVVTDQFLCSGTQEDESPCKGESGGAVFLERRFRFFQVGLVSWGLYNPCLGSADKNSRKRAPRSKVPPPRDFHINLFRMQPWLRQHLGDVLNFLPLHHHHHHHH

The target of another test is T2, human C2 F437A (human, UniProt P06681 21-752).
T2 sequence: T1 sequence with A410K, F417A

A further test deals with T3, human C2 I438A (human, UniProt P06681 21-752).
T3 sequence: T1 sequence with A410K, I418A

A further test addresses T4, human C2 A472S (human, UniProt P06681 21-752).
T4 sequence: T1 sequence with A410K, A452S

Where a chain is given by its changes, count along the chain named.

B1: RF16-242 (antibody, human IgG4 S228P, lambda, V domains shown)
VH: EVQLLQSGAEVKKPGESLKISCKGSGYSFTSYWIGWVRQMPGKGLEWMGIIYPGDSDTRYSPSFQGQVTISADKSISTAYLQWSSLKASDTAMYYCARRGHYGDYFDYWGQGTLVTVSS
VL: SYELTQPPSVSVSPGQTARITCSGDALPKKYAYWYHQKSGQAPVLVIYEDRRRPSEIPERFSGSSSGTMATLTITGAQVEDEGVYFCYSRDRAGNQRVFGGGTQLTVLG
notes: pH-dependent anti-C2 antibody from a phage display library
In the case of B1, the Kd in the test with human C2 K430A is 91 nM; with human C2 F437A it was 107 nM; with human C2 I438A, 8.7 nM; with human C2 A472S it was 51.1 nM.
